Assay results reported in patent US20250340662A1.
Residue numbers refer to the chain shown, from its start. Each block holds one binder with its values, some of them ahead of it.

Assays:
[1] = target: CD44v6 on cultured cancer cells (BHT-101, ACT-1, A431) (human) (UniProt P16070); assay: live BHT-101 cells; apparent KD
[2] = target: CD44v6 on cultured cancer cells (BHT-101, ACT-1, A431) (human) (UniProt P16070); assay: LigandTracer, 125I-IgG4 on BHT-101 cells
[3] = target: CD44v6 on cultured cancer cells (BHT-101, ACT-1, A431) (human) (UniProt P16070); assay: LigandTracer, 177Lu-antibody on A431 cells
[4] = target: Cynomolgus v6-peptide (cynomolgus); assay: SPR SCK, antibody immobilised, peptide injected
Human v6-peptide (human) = target: T1, Human v6-peptide (human); assay: SPR SCK, antibody immobilised, peptide injected
T1 sequence (peptide, N-terminal biotin): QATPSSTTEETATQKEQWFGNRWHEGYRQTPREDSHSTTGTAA

[5] = target: Human CD44v6 iso4-Fc (human) (UniProt P16070); assay: SPR SCK, antibody immobilised, CD44v6-Fc injected
[6] = target: Human CD44v6 iso4-Fc (human) (UniProt P16070); assay: SPR SCK, antibody immobilised, CD44v6-Fc injected; apparent KD

Sequence of Cynomolgus v6-peptide (cynomolgus) (peptide, as listed by the source): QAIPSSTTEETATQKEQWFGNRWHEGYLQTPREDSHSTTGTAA
Sequence of Human CD44v6 iso4-Fc (human) (P16070 other isoform, or with tags, fused parts or gaps limits assumed): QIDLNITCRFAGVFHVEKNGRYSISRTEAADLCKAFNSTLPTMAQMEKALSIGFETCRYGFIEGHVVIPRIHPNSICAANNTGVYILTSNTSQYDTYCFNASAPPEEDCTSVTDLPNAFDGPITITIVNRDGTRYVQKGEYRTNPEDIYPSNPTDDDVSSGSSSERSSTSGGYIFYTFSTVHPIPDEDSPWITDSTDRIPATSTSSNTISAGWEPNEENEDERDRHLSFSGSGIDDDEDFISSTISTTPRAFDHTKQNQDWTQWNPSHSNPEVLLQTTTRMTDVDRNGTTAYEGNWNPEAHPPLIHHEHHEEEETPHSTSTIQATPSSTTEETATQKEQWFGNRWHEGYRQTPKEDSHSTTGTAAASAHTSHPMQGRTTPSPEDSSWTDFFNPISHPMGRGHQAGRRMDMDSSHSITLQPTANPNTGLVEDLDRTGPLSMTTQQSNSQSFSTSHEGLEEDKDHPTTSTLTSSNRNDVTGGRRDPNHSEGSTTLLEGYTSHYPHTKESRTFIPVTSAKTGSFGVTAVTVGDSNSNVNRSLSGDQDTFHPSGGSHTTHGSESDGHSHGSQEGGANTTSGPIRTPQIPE

Kd [1]: < 0.2 nM | Kd [2]: 0.02 nM
B1: AL-MN114-435 hIgG4 (antibody, V domains shown)
VH: EVQLLESGGGLVQPGGSLRLSCAASGFTFSSYAMSWVRQAPGKGLEWVSAISAGGSSTFYADSVKGRFTISRDNSKNTLYLQMNSLRAEDTAVYYCARHYYSDSDYRSSAAMDYWGQGTLVTVSS
VL: DIQMTQSPSSLSASVGDRVTITCRASQSISSYLNWYQQKPGKAPKLLIYAASSLQSGVPSRFSGSGSGTDFTLTISSLQPEDFATYYCQQDLYLLTFGQGTKLEIK

Kd [1]: < 0.2 nM
B2: AL-MN114-132 hIgG4 (antibody, V domains shown)
VH: B1 VH with A53G, F59Y
VL: B1 VL

Kd [1]: < 0.2 nM | Kd [2]: 0.03 nM | Kd [3]: 0.03 nM
B3: AL-MN114-465 hIgG4 (antibody, V domains shown)
VH: B1 VH with T28S, S30G
VL: B1 VL with A50T

Kd [1]: < 0.2 nM | Kd [2]: 0.06 nM
B4: AL-MN114-429 hIgG4 (antibody, V domains shown)
VH: B1 VH with T28S, Y32F, F59Y
VL: B1 VL

Kd [1]: < 0.2 nM | Kd [2]: 0.04 nM
B5: AL-MN114-19 hIgG4 (antibody, V domains shown)
VH: B1 VH with T28S, S30G, A53G
VL: B1 VL with A50S

Kd [1]: < 0.2 nM | Kd [2]: 0.02 nM
B6: AL-MN114-18 hIgG4 (antibody, V domains shown)
VH: B1 VH with T28S, S30G, Y32F, A53G, F59Y
VL: B1 VL with S28T, S30A, A50T, S53N

Kd [1]: < 0.2 nM
B7: AL-MN114-23 hIgG4 (antibody, V domains shown)
VH: B1 VH with T28S, S30R, S31N, Y32F, A53G, S56G
VL: B1 VL with S28N, A50S, S53I

Kd [1]: < 0.2 nM
B8: AL-MN114-439 hIgG4 (antibody, V domains shown)
VH: B1 VH with T28S, S30G, Y32F
VL: B1 VL

Kd [1]: < 0.2 nM
B9: AL-MN114-93 hIgG4 (antibody, V domains shown)
VH: B1 VH with T28S, S30G, Y32F, F59Y
VL: B1 VL

Kd [1]: < 0.2 nM | Kd [2]: 0.04 nM
B10: AL-MN114-42 hIgG4 (antibody, V domains shown)
VH: B1 VH with A53G, S56Y, F59Y
VL: B1 VL with S28T, S30G, A50S, S53I

Kd [1]: < 0.2 nM
B11: AL-MN114-145 hIgG4 (antibody, V domains shown)
VH: B1 VH with T28S, Y32F
VL: B1 VL with S30G, A50S, S53N

Kd [1]: < 0.2 nM
B12: AL-MN114-452 hIgG4 (antibody, V domains shown)
VH: B1 VH with T28S
VL: B1 VL with S30G, A50S

Kd [1]: < 0.2 nM | Kd [2]: 0.03 nM
B13: AL-MN114-451 hIgG4 (antibody, V domains shown)
VH: B1 VH with S56Y, F59Y
VL: B1 VL with S30G, A50T, S53T

Kd [1]: < 0.2 nM | Kd [2]: 0.04 nM
B14: AL-MN114-126 hIgG4 (antibody, V domains shown)
VH: B1 VH with F59Y
VL: B1 VL

Kd [1]: < 0.2 nM
B15: AL-MN114-460 hIgG4 (antibody, V domains shown)
VH: B1 VH with T28S, S30G, F59Y
VL: B1 VL with S30G, A50S

Kd [1]: < 0.2 nM | Kd [2]: 0.02 nM
B16: AL-MN114-71 hIgG4 (antibody, V domains shown)
VH: B1 VH with T28S, S30R, Y32F, A53G
VL: B1 VL with S53T

Kd [1]: < 0.2 nM | Kd [2]: 0.02 nM
B17: AL-MN114-444 hIgG4 (antibody, V domains shown)
VH: B1 VH with S30R, Y32F, A53G
VL: B1 VL with S30G, A50S

Kd [1]: < 0.2 nM
B18: AL-MN114-14 hIgG4 (antibody, V domains shown)
VH: B1 VH with A53G, G54S, S56R
VL: B1 VL

Kd [1]: < 0.2 nM | Kd [2]: 0.1 nM
B19: AL-MN114-423 hIgG4 (antibody, V domains shown)
VH: B1 VH with S56T, F59Y
VL: B1 VL

Kd [1]: < 0.2 nM | Kd [2]: 0.03 nM
B20: AL-MN114-79 hIgG4 (antibody, V domains shown)
VH: B1 VH with S30R, Y32F, A50T
VL: B1 VL with S30A, S31N, S53T

Kd [4]: 12 nM | koff [4]: 0.0035 s⁻¹ | kon [4]: 280000 M⁻¹ s⁻¹ | Kd (Human v6-peptide (human)): 15 nM | koff (Human v6-peptide (human)): 0.0035 s⁻¹ | kon (Human v6-peptide (human)): 240000 M⁻¹ s⁻¹ | koff [5]: 0.00027 s⁻¹ | kon [5]: 370000 M⁻¹ s⁻¹ | Kd [6]: 0.72 nM
B21: BIWA4 IgG1 LALA (antibody, from another filing, V domains shown)
VH: EVQLVESGGGLVKPGGSLRLSCAASGFTFSSYDMSWVRQAPGKGLEWVSTISSGGSYTYYLDSIKGRFTISRDNAKNSLYLQMNSLRAEDTAVYYCARQGLDYWGRGTLVTVSS
VL: EIVLTQSPATLSLSPGERATLSCSASSSINYIYWYQQKPGQAPRLLIYLTSNLASGVPARFSGSGSGTDFTLTISSLEPEDFAVYYCLQWSSNPLTFGGGTKVEIKR

Kd [4]: 44 nM | koff [4]: 0.0036 s⁻¹ | kon [4]: 83000 M⁻¹ s⁻¹ | Kd (Human v6-peptide (human)): 73 nM | koff (Human v6-peptide (human)): 0.0027 s⁻¹ | kon (Human v6-peptide (human)): 36000 M⁻¹ s⁻¹ | koff [5]: 0.00033 s⁻¹ | kon [5]: 24000 M⁻¹ s⁻¹ | Kd [6]: 14 nM
B22: BIWA4 IgG1 LALA IAHA (antibody, from another filing, V domains shown)
VH: B21 VH
VL: B21 VL
